Measured values as given in doi:10.1101/2024.05.07.593072.

Biological target: H-2Kb MHC class 1 molecule on RMA-S cells (mouse (endogenous in RMA-S))
Assay: peptide-induced MHC stabilisation assay

H-2Kb-positive cells: 55.3%
Substance: OVA peptide (SIINFEKL) synthesized with PCR-IVTT reaction
